Tests used:
Ev1 protein [1] = biological target: T1, Ev1 protein (Homo sapiens, UniProt Q9UI08); assay: Catenation of single-stranded DNA in coexistence of DNA topoisomerase type I protein and Ev1 protein; assay type: biochemical; settings: 20 μM φ×174 single-stranded DNA; 37° C., 1 hour; E. coli TopoI 0.05-5 U or 2.8 nM hsTopoI
T1 construct: in accordance with the protocols used in purification of the entire-length Ev1 protein; 6xHis (N, cleaved yes); made in house; host or cells: E. coli BL21 (DE3) codon plus-RP, pET15b vector
T1 sequence (Q9UI08 1-418 isoform Q9UI08-2): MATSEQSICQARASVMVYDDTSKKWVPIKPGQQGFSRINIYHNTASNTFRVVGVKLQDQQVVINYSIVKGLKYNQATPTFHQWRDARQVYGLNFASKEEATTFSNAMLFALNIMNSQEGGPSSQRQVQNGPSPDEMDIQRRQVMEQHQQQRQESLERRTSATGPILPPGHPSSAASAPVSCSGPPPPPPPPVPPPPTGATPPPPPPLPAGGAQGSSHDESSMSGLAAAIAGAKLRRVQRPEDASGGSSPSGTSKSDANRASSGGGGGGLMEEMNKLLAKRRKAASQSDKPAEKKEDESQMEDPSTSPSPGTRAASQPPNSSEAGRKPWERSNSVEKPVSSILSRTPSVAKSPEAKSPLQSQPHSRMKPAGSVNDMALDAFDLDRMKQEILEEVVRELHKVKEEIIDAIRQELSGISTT
Description: A 20 μM φ×174 single-stranded DNA, a 4 μM Ev1 protein, and a DNA topoisomerase type I protein in each concentration or unit number (derived from Escherichia coli or a human) were added to 10 μl of a reaction solution (20 mM HEPES, 1 mM DTT, 100 μg/ml BSA, and 1 mM MgCl2). The obtained mixture was reacted at 37° C. for 1 hour. Thereafter, the sample was subjected to a deproteination treatment using 0.2% SDS and 1.3 mg/ml proteinase K. The obtained product was separated by 0.9% agarose gel electrophoresis, and a DNA band was then stained with SYBR Gold (Invitrogen) (FIG. 13).

Ev1 protein [2] = biological target: T1, Ev1 protein; assay: Influence of Rad51B or Rad51 on catenation of single-stranded DNA by the Ev1 protein; assay type: biochemical
Description: Lanes 1 and 5 indicate the results of control experiments in which neither the Ev1 nor the Rad51B protein was used. Lanes 2 and 6 indicate the results of experiments that were carried out using a 4 μM Rad51B protein in the absence of the Ev1 protein. Lanes 3 and 7 indicate the results of experiments that were carried out using a 4 μM Ev1 protein in the absence of the Rad51B protein. Lanes 4 and 8 indicate the results of experiments that were carried out using a 4 μM Ev1 protein and a 4 μM Rad51B protein. Further, lanes 1-4 indicate the results of experiments that were carried out in the presence of ATP, and lanes 5-8 indicate the results of experiments that were carried out in the absence of ATP. […] Lanes 1 and 5 indicate the results of control experiments in which neither the Ev1 nor the Rad51 protein was used. Lanes 2 and 6 indicate the results of experiments that were carried out using a 4 μM Rad51 protein in the absence of the Ev1 protein. Lanes 3 and 7 indicate the results of experiments that were carried out using a 4 μM Ev1 protein in the absence of the Rad51 protein. Lanes 4 and 8 indicate the results of experiments that were carried out using a 4 μM Ev1 protein and a 4 μM Rad51 protein. Further, lanes 1-4 indicate the results of experiments that were carried out in the presence of ATP, and lanes 5-8 indicate the results of experiments that were carried out in the absence of ATP.
The Rad51B protein was mixed in a concentration of 0.5 to 8 μM with a 4 μM Ev1 protein, and the activity was then measured. Lane 1 indicates the results of a control experiment in which neither the Rad51B protein nor the Ev1 protein was added, and lane 8 indicates the results of a control experiment in which a 8 μM Rad51B protein was added and no Ev1 protein was added. Lanes 2-7 indicate the results of experiments in which the Rad51B protein was added in concentrations of 0 μM, 0.5 μM, 1.0 μM, 2.0 μM, 4.0 μM, and 8.0 μM, respectively, in the presence of 4 μM Ev1.
A φ×174 or M13 mp18 circular single-stranded DNA (20 μM) was incubated at 37° C. in 20 mM HEPES-NaOH (pH 7.5), 1 mM DTT, 1 mM MgCl2, and 0.1 mg/ml BSA. Thereafter, the sample was subjected to a deproteination treatment with 0.2% SDS and 1.3 mg/ml proteinase K. The obtained product was separated by 0.9% agarose gel electrophoresis, and a DNA band was then stained with SYBR Gold (Invitrogen).

B1: DNA topoisomerase type I protein derived from a human: hsTopoI (human, Jena Bioscience) (protein, UniProt P11387 2-765, looked up)
DNA topoisomerase 1: SGDHLHNDSQIEADFRLNDSHKHKDKHKDREHRHKEHKKEKDREKSKHSNSEHKDSEKKHKEKEKTKHKDGSSEKHKDKHKDRDKEKRKEEKVRASGDAKIKKEKENGFSSPPQIKDEPEDDGYFVPPKEDIKPLKRPRDEDDADYKPKKIKTEDTKKEKKRKLEEEEDGKLKKPKNKDKDKKVPEPDNKKKKPKKEEEQKWKWWEEERYPEGIKWKFLEHKGPVFAPPYEPLPENVKFYYDGKVMKLSPKAEEVATFFAKMLDHEYTTKEIFRKNFFKDWRKEMTNEEKNIITNLSKCDFTQMSQYFKAQTEARKQMSKEEKLKIKEENEKLLKEYGFCIMDNHKERIANFKIEPPGLFRGRGNHPKMGMLKRRIMPEDIIINCSKDAKVPSPPPGHKWKEVRHDNKVTWLVSWTENIQGSIKYIMLNPSSRIKGEKDWQKYETARRLKKCVDKIRNQYREDWKSKEMKVRQRAVALYFIDKLALRAGNEKEEGETADTVGCCSLRVEHINLHPELDGQEYVVEFDFLGKDSIRYYNKVPVEKRVFKNLQLFMENKQPEDDLFDRLNTGILNKHLQDLMEGLTAKVFRTYNASITLQQQLKELTAPDENIPAKILSYNRANRAVAILCNHQRAPPKTFEKSMMNLQTKIDAKKEQLADARRDLKSAKADAKVMKDAKTKKVVESKKKAVQRLEEQLMKLEVQATDREENKQIALGTSKLNYLDPRITVAWCKKWGVPIEKIYNKTQREKFAWAIDMADEDYEF
Q: B1 was tested. Which “effect on catenation of single-stranded DNA molecules in coexistence with the Ev1 protein” value (Ev1 protein [1]) did it give?
A: promoted

B2: DNA topoisomerase type I protein derived from Escherichia coli: TopoI (E. coli, New England Biolabs) (protein, UniProt P06612 1-865, looked up)
DNA topoisomerase 1: MGKALVIVESPAKAKTINKYLGSDYVVKSSVGHIRDLPTSGSAAKKSADSTSTKTAKKPKKDERGALVNRMGVDPWHNWEAHYEVLPGKEKVVSELKQLAEKADHIYLATDLDREGEAIAWHLREVIGGDDARYSRVVFNEITKNAIRQAFNKPGELNIDRVNAQQARRFMDRVVGYMVSPLLWKKIARGLSAGRVQSVAVRLVVEREREIKAFVPEEFWEVDASTTTPSGEALALQVTHQNDKPFRPVNKEQTQAAVSLLEKARYSVLEREDKPTTSKPGAPFITSTLQQAASTRLGFGVKKTMMMAQRLYEAGYITYMRTDSTNLSQDAVNMVRGYISDNFGKKYLPESPNQYASKENSQEAHEAIRPSDVNVMAESLKDMEADAQKLYQLIWRQFVACQMTPAKYDSTTLTVGAGDFRLKARGRILRFDGWTKVMPALRKGDEDRILPAVNKGDALTLVELTPAQHFTKPPARFSEASLVKELEKRGIGRPSTYASIISTIQDRGYVRVENRRFYAEKMGEIVTDRLEENFRELMNYDFTAQMENSLDQVANHEAEWKAVLDHFFSDFTQQLDKAEKDPEEGGMRPNQMVLTSIDCPTCGRKMGIRTASTGVFLGCSGYALPPKERCKTTINLVPENEVLNVLEGEDAETNALRAKRRCPKCGTAMDSYLIDPKRKLHVCGNNPTCDGYEIEEGEFRIKGYDGPIVECEKCGSEMHLKMGRFGKYMACTNEECKNTRKILRNGEVAPPKEDPVPLPELPCEKSDAYFVLRDGAAGVFLAANTFPKSRETRAPLVEELYRFRDRLPEKLRYLADAPQQDPEGNKTMVRFSRKTKQQYVSSEKDGKATGWSAFYVDGKWVEGKK
Q: With B2 as the molecule, how does the “effect on catenation of single-stranded DNA molecules in coexistence with the Ev1 protein” value (Ev1 protein [1]) read?
A: promoted

B3: Rad51 protein: Rad51 protein showing sequence similarity to Rad51B (protein, UniProt Q06609 2-339, looked up)
DNA repair protein RAD51 …: AMQMQLEANADTSVEEESFGPQPISRLEQCGINANDVKKLEEAGFHTVEAVAYAPKKELINIKGISEAKADKILAEAAKLVPMGFTTATEFHQRRSEIIQITTGSKELDKLLQGGIETGSITEMFGEFRTGKTQICHTLAVTCQLPIDRGGGEGKAMYIDTEGTFRPERLLAVAERYGLSGSDVLDNVAYARAFNTDHQTQLLYQASAMMVESRYALLIVDSATALYRTDYSGRGELSARQMHLARFLRMLLRLADEFGVAVVITNQVVAQVDGAAMFAADPKKPIGGNIIAHASTTRLYLRKGRGETRICKIYDSPCLPEAEAMFAINADGVGDAKD
Q: For B3, which “effect on catenation of DNA molecules by the Ev1 protein” value (“effect on catenation of DNA molecules” for short) (Ev1 protein [2]; 4 μM Rad51, 4 μM Ev1 protein, regardless of presence or absence of ATP) is on record?
A: inhibited the catenation of DNA molecules by the Ev1 protein

B4: Rad51B: Rad51B protein purified by the previously reported method (Yokoyama et al.) (protein)
chain: MGSKKLKRVGLSQELCDRLSRHQILTCQDFLCLSPLELMKVTGLSYRGVHELLCMVSRACAPKMQTAYGIKAQRSADFSPAFLSTTLSALDEALHGGVACGSLTEITGPPGCGKTQFCIMMSILATLPTNMGGLEGAVVYIDTESAFSAERLVEIAESRFPRYFNTEEKLLLTSSKVHLYRELTCDEVLQRIESLEEEIISKGIKLVILDSVASVVRKEFDAQLQGNLKERNKFLAREASSLKYLAEEFSIPVILTNQITTHLSGALASQADLVSPADDLSLSEGTSGSSCVIAALGNTWSHSVNTRLILQYLDSERRQILIAKSPLAPFTSFVYTIKEEGLVLQAYGNS
Q: How did the “effect on catenation of DNA molecules” value (Ev1 protein [2]; 4 μM Rad51B, 4 μM Ev1 protein, absence of ATP) turn out when B4 was run?
A: not significant

Q: What about the “effect on catenation of DNA molecules” value (Ev1 protein [2]; 4 μM added protein, 4 μM Ev1 protein, presence of ATP) of the same molecule?
A: significantly promoted
